# From paper PMC6065011
# Assays:
# [1] = biological target: HMGB1, disulfide form (recombinant) (UniProt P09429); assay: SPR
# [2] = biological target: Siglec-10-Fc (soluble, recombinant) (UniProt Q96LC7); assay: SPR
# Chain of UniProt Q96LC7 (Q96LC7 17-550): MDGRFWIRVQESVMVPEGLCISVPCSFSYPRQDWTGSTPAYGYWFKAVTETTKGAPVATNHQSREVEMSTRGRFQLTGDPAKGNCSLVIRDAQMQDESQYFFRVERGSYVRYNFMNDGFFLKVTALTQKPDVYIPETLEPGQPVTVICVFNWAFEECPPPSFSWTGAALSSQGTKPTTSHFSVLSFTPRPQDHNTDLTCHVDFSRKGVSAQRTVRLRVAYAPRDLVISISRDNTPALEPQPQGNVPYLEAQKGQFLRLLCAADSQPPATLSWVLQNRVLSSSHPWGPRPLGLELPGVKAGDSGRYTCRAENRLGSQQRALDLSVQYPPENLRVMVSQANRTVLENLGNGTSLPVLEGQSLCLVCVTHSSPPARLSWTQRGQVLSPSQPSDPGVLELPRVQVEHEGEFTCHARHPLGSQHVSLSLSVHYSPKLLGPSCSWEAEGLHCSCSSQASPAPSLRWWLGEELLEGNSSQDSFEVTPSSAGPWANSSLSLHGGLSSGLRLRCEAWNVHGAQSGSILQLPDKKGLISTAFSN
# Chain of UniProt P09429 (P09429 whole entry): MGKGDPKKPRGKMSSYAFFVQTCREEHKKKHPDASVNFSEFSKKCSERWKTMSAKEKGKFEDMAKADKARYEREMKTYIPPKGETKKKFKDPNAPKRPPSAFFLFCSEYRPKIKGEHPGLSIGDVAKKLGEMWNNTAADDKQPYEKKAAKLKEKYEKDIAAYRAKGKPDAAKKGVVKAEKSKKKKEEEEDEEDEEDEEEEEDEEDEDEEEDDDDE
substance,measurement,setting,value
"CD52-Fc (soluble CD52, recombinant) (from UniProt P31358 25-36) (Fc fusion)",Kd,[1],130 nM
same,Kd,[2],565 nM
